Source: patent publication US20230303694A1 (LAVA THERAPEUTICS N V, published 2023)
Each block holds one binder with its values, some of them ahead of it.

Key:
[1] = biological target: T1, epidermal growth factor receptor (EGFR) on EGFR-expressing tumor cell lines A-431, HCT-116 and HT-29 (human, UniProt P00533 25-1210); experiment: cell-based ELISA on A-431 cells, anti-IgG1-HRP, signal at 450 nm
T1 construct: whole, on cells; also called EGFR on tumor cells
Description: To this end, tumor cells were first seeded at different concentrations on day −1 to reach a concentration of approximately 50000 cells/well on day 0. […] Bound antibodies were then labelled in a secondary incubation step with anti-IgG1-HRP for one hour at 37° C. The secondary antibody binding was then resolved by the addition of 3,3′,5,5′-Tetramethylbenzidine and the colorimetric change induced by the HRP, followed by the addition of H2SO4 to stop the reaction. The optical density (OD) was then measured in a UV spectrometer at a wavelength of 450 nm.

[2] = biological target: T1, epidermal growth factor receptor (EGFR) …; experiment: cell-based or functional assay
[3] = biological target: human Vγ9Vδ2 T cell receptor (TCR) on primary Vγ9Vδ2 T cells (human), Q99603; experiment: cell-based or functional assay

- EC50 (read off the curve) [1]: ~2000 pM
B1: 7D12var8-5C8var1(Y105F)-Fc (bispecific antibody, V domains shown)
V domain 1: EVQLVESGGGSVQPGGSLRLSCAASGRTSRSYGMGWFRQAPGKEREFVSGISWRGDSTGYADSVKGRFTISRDNAKNTVDLQMNSLRAEDTAVYYCAAAAGSAWYGTLYEYDYWGQGTLVTVSS
V domain 2: EVQLLESGGGSVQPGGSLRLSCAASGRPFSNYAMSWFRQAPGKEREFVSAISWSGGSTSYADSVKGRFTISRDNSKNTLYLQMNSLRAEDTAVYYCAAQFSGADFGFGRLGIRGYEYDYWGQGTQVTVSS
notes: Heterodimer of two VHH-Fc chains: the anti-EGFR 7D12var8-Fc (hole) and the anti-Vδ2 5C8var1(Y105F)-Fc (knob); The Fc is human IgG1 with L234F/L235E and a modified hinge; also called 7D12var8-5C8var1(Y105F) with Fc region

- EC50 degranulation (CD107A+ Vγ9Vδ2 T cells, 4 h, with A431 cells) [3]: 11 pM
B2: bispecific VHH 7D12var8-5C8var1-Y105F (bispecific antibody)
chain: EVQLVESGGGSVQPGGSLRLSCAASGRTSRSYGMGWFRQAPGKEREFVSGISWRGDSTGYADSVKGRFTISRDNAKNTVDLQMNSLRAEDTAVYYCAAAAGSAWYGTLYEYDYWGQGTLVTVSSGGGGSEVQLLESGGGSVQPGGSLRLSCAASGRPFSNYAMSWFRQAPGKEREFVSAISWSGGSTSYADSVKGRFTISRDNSKNTLYLQMNSLRAEDTAVYYCAAQFSGADFGFGRLGIRGYEYDYWGQGTQVTVSS
- EC50 cytotoxicity (A431 tumor cell kill, 24 h, with Vγ9Vδ2 T cells) [2]: 2.5 pM
